Laboratory results published in publication PMC11959277, “Trichocystatin-2 from Trichomonas vaginalis: role of N-terminal cysteines in aggregation, protease inhibition, and trichomonal cysteine protease-dependent cytotoxicity on HeLa cells” (Frontiers in Parasitology, 2025).
Values joined by “and” are separate entries in the source; they are usually repeats but may differ in a detail not shown here. Equal values may be shown once.

B1: recombinant wild-type trichocystatin-2 (rTC-2) (natural protein)
chain: MSCGGGCCCGAAKPANVQDEHVIQAFKDAIALGNQKNGTTLEYIQLLSATQKVVSGYIFEGVVKTNDGDYKVKIWCKPGNTEKELQLFEKA
notes: trichocystatin-2 (TC-2), Trichomonas vaginalis, TrichDB TVAG_272260; 10-kDa cystatin of the stefin type; the TC-2 gene cloned in pCold I as in Puente-Rivera et al., 2014; No tag removal is described; Mixture of monomer, dimer and higher forms in SEC

How the values were obtained:
[1] = target: recombinant TC-2Δ11 deletion mutant (rTC-2Δ11) (Trichomonas vaginalis) (UniProt A2FXT2); experiment: SEC; analytical SEC, Superdex 200 pg HiLoad 26/600, 5 mg protein loaded, 50 mM Tris-HCl pH 8.0, 100 mM NaCl, 0.02% NaN3, room temperature (23-25°C); samples stored 1 month at 4°C
[2] = target: recombinant TC-2Δ11 deletion mutant (rTC-2Δ11) (Trichomonas vaginalis) (UniProt A2FXT2); experiment: SEC; analytical SEC, Superdex 200 pg HiLoad 26/600, 5 mg protein loaded, 50 mM Tris-HCl pH 8.0, 100 mM NaCl, 0.02% NaN3, room temperature (23-25°C); samples stored 3 months at 4°C
A2FXT2 = experiment: SEC; analytical SEC, Superdex 200 pg HiLoad 26/600, 5 mg protein loaded, 50 mM Tris-HCl pH 8.0, 100 mM NaCl, 0.02% NaN3, room temperature (23-25°C); samples stored 1 month at 4°C
[3] = target: the molecule itself; experiment: as above
[4] = target: the molecule itself; experiment: SEC; analytical SEC, Superdex 200 pg HiLoad 26/600, 5 mg protein loaded, 50 mM Tris-HCl pH 8.0, 100 mM NaCl, 0.02% NaN3, room temperature (23-25°C); samples stored 3 months at 4°C

Molecule | Area (%) of the dimer peak [1] [%] | stoichiometry N [1] | Area (%) of the dimer peak [2] [%] | stoichiometry N [2] | Area (%) of the peak of high molecular weight aggregates (A2FXT2) [%] | stoichiometry N [3] | stoichiometry N [4]
recombinant TC-2Δ11 deletion mutant (rTC-2Δ11) (from UniProt A2FXT2 12-91) (domain or fragment) | 19.5 | 2 | 25.8 | 2 | – | – | –
B1 | – | – | – | – | 2.2 | 2 | 2 and 4
